Assay results taken from article PMC8280106 (2021).

T1: murine TFF3 (mTFF3) (mouse, UniProt Q62395 23-81)
T1 chain: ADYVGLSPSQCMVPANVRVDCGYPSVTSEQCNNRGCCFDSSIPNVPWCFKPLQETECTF


Key:
[1] = molecular target: Trefoil factor 3 (TFF3), recombinant mature form (residues 22-80) (human); experiment: SPR; Biacore T200; TFF peptides immobilised on a CM5 chip (10 mM sodium acetate pH 4.0); purified proteins as analytes at 30 µL/min, 2 min association; multiple cycle kinetics, 1:1 model
[2] = molecular target: T1, murine TFF3 (mTFF3); experiment: SPR

Row | Kd [1] [nM] | Kd [2] [nM] | Molecule
1 | 2030 |  | extracellular domain of CD147 (CD147^ECD) (domain or fragment)
2 |  | 2510 | murine CD147^ECD (mCD147^ECD) (domain or fragment) AAGTIQTSVQEVNSKTQLTCSLNSSGVDIVGHRWMRGGKVLQEDTLPDLHTKYIVDADDRSGEYSCIFLPEPVGRSEINVEGPPRIKVGKKSEHSSEGELAKLVCKSDASYPPITDWFWFKTSDTGEEEAITNSTEANGKYVVVSTPEKSQLTISNLDVNVDPGTYVCNATNAQGTTRETISLRVRSR
